Laboratory results reported in US20220356229A1 (published 2022).
Like-named read-outs stand apart in the source and are kept apart here.

How the values were obtained:
[1] = target: SARS-CoV-2 full length Spike protein, wild type, expressed on the surface of transiently transfected CHO cells (SARS-CoV-2, UniProt P0DTC2 14-1273)
[2] = target: SARS-CoV-2 full length Spike protein, wild type (SARS-CoV-2, UniProt P0DTC2 14-1208)
[3] = target: SARS-CoV-2 Spike protein (wild type) (SARS-CoV-2, UniProt P0DTC2 14-1208)
[4] = target: Spike protein of SARS-CoV-2 hCoV-19/Canada/ON_ON-VIDO-01-2/202 (live virus) (SARS-CoV-2, UniProt P0DTC2 14-1273); assay: cell-based or functional assay
[5] = target: Spike protein of authentic SARS-CoV-2/MT020880.1 (live virus) (SARS-CoV-2, UniProt P0DTC2 14-1273); assay: cell-based or functional assay
[6] = target: SARS-CoV-2 Spike protein on pseudotyped lentivirus (SARS-CoV-2, UniProt P0DTC2 14-1273); assay: cell-based or functional assay
[7] = target: SARS-CoV-2 Spike protein (wild type) (SARS-CoV-2, UniProt P0DTC2 14-1208); assay: SPR (Carterra LSA), mAb coupled to HC30M chip, Spike titrated; Example 4 methods
[8] = target: SARS-CoV-2 Spike (S) protein, wild type, full length (SARS-CoV-2, UniProt P0DTC2 14-1273)

B1: antibody 576 (antibody, V domains shown)
VH: QVQLVESGGGVVQPGRSLRLSCAASGFTFSSYAMHWVRQAPGKGLEWVAVISYDGSNKYYADSVKGRFTISRDNSKNTLYLQMNSLRAEDTAVYYCAKAGGGSYYRGFDYWGQGTLVTVSS
VL: DIQLTQSPSFLSASVGDRVTITCRASQGISSYLAWYQQKPGKAPKLLIYAASTLQSGVPSRFSGSGSGTEFTLTISSLQPEDFATYYCQQLNSYPTFGPGTKVDIK
median fluorescence intensity, fold over isotype control [1]: 8.75 fold over isotype

B2: antibody 446 (antibody, V domains shown)
VH: QVQLVESGGGVVQPGRSLRLSCAASGFTFSSYAMHWVRQAPGKGLEWVAVISYDGSNKYYADSVKGRFTISRDNSKNTLYLQMNSLRAEDTAVYYCARPNSGSYFGYFQHWGQGTLVTVSS
VL: QSVLTQPPSVSGAPGQRVTISCTGSSSNIGAGYDVHWYQQLPGTAPKLLIYGNSNRPSGVPDRFSGSKSGTSASLAITGLQAEDEADYYCQSYDSSLSGFYVFGTGTKVTVL
median fluorescence, fold over isotype [2]: 435 fold over isotype control

B3: antibody 431 (antibody, V domains shown)
VH: QVQLVESGGGVVQPGRSLRLSCAASGFTFSSYAMHWVRQAPGKGLEWLAVISYDGSNKYYADSVKGRFTISRDNSKNTLYLQMNSLRAEDTAVYYCARSFRGGYYYGMDVWGQGTTVTVSS
VL: DIQLTQSPSFLSASVGDRVTITCRASQGISSYLAWYQQKPGKAPKLLIYAASTLQSGVPSRFSGSGSGTEFTLTISSLQPEDFATYYCQQLNSYPLFTFGPGTKVDIK
median fluorescence, fold over isotype [2]: 715 fold over isotype control

B4: antibody 439 (antibody, V domains shown)
VH: QVQLVESGGGVVQPGRSLRLSCAASGFTFSSYAMHWVRQAPGKGLEWVAVISYDGSNKYYADSVKGRFTISRDNSKNTLYLQMNSLRAEDTAVYYCARPPRGGSYYPFDPWGQGTLVTVSS
VL: not shown
median fluorescence, fold over isotype [2]: 227 fold over isotype control

B5: anti-SARS-CoV-2 antibody 278 (antibody, V domains shown)
VH: QVQLVQSGAEVKKPGASVKVSCKASGYTFTSYYMHWVRQAPGQGLEWMGIINPSGGSTSYAQKFQGRVTMTRDTSTSTVYMELSSLRSEDTAVYYCARDHSNADPYYDFWSGYYTRTYYYGMDVWGQGTTVTVSS
VL: not shown
Kd [3]: 4.28 nM

B6: antibody 454 (antibody, V domains shown)
VH: QVQLVQSGAEVKKPGASLKVSCKASGYIFTGYYMHWVRQAPGQGLEWMGWISPNSGGTKYAQKFQGRVTMTRDTSISTAYMELSRLRSDDSAVYYCAREPYYDILTGYYTPRRYLDYWGQGTLVTVSS
VL: QSALTQPASVSGSPGQSITISCTGTSSDVGDYNYVSWYQQHPGKVPKLMIYDVSHRPSGVTNRFSGSKSGNTASLTISGLRAEDEADYYCSSYTSSSTYVFGTGTKVTVL
median fluorescence, fold over isotype [2]: 1090 fold over isotype control

B7: anti-SARS-CoV-2 antibody 1037 (antibody, V domains shown)
VH: QITLKESGPTLVKPTQTLTLTCTFSGFSLSTSGVGVGWIRQPPGKALEWLALIYWDDDKRYSPSLKSRLTITKDTSKNQVVLTMTNMDPVDTATYYCAHHTITRINDYWGQGTLVTVSS
VL: QSALTQPASVSGSPGQSITISCTATSSDVGAYNYVSWYQQHPGKAPKLMIYDVSKRPSGVSNRFSGSKSGNTASLTISGLQAEDEADYYCSSYTSSSTVFGGGTKLTVLG
IC50 (µg/mL), plaque reduction neutralization test [4]: 0.0096 µg/mL | IC50 (ng/mL), immunofluorescence neutralization assay [5]: 32.8 ng/mL

B8: anti-SARS-CoV-2 antibody 1075 (antibody, V domains shown)
VH: QVQLVQSGAEVKKPGASVKVSCKVSGYTLIELSMHWVRQAPGKGLEWMGGFDPEDGETIYAQKFQGRVTMTEDTSTDTAYMELSSLRSEDTAVYYCATEWAYYGSGSYLGYWGQGTLVTVSS
VL: EIVMTQSPATLSVSPGERATLSCRASQSVSSNLAWFQQKPGQAPRLLIYGASTRVTVIPARFSGSGSGTEFTLTISSLQSEDFAVYYCQQYNNWPRTFGQGTKVEIKR
IC50 (µg/mL), plaque reduction neutralization test [4]: 0.409 µg/mL | IC50 (ng/mL), immunofluorescence neutralization assay [5]: 89.6 ng/mL

B9: anti-SARS-CoV-2 antibody 1118 (antibody, V domains shown)
VH: QVQLVESGGGVVQPGRSLRLSCAASGFTFSTYAMHWVRQAPGKGLEWVAVISYDGSNKYYSDSVKGRFTISRDNSKNTLYLQMNSLRAEDTAVYYCARAHTSGWPLGDYFDYWGQGTLVTVSS
VL: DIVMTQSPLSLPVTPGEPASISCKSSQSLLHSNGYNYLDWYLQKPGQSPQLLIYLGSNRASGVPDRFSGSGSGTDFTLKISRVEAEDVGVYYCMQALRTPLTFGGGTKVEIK
Pseudo-neutralization IC50 [6]: 0.026 µg/mL | Kd [7]: 0.223 nM

B10: antibody 577 (antibody, V domains shown)
VH: QLPLQESGPGLVKPSETLSLTCTVSGGSISSSSYYWGWIRQPPGKGLEWIGSIYYSGSTFYNPSLKSRVTISGDTSKNQFSLKVTSVTAADTAVYYCARGSGSSGWYAFDIWGQGTMVTVSS
VL: QSALTQPASVSGSPGQSITISCTGTSSDFGGYNYVSWYQQHPDKAPKLMIYDVSNRPSGVSNRFSGSKSGNTASLTISGLQAEDEADYYCSSYTTSSTWVFGGGTKLTVL
median fluorescence intensity, fold over isotype control [1]: 1.14 fold over isotype

B11: anti-SARS-CoV-2 antibody 1000 (antibody, V domains shown)
VH: EVQLVQSGAEVKKPGESLKISCKASGYSFTIYWIGWVRQMPGKGLEWMGVIYPGDSDTRYSPSFQGQVTISADKSISTAYLQWSSLKASDTAMYYCALGYHSGSYPFNWFDPWGQGTLVTVSS
VL: EIVMTQSPATLSVSPGERATLSCRASQSVSSNLAWYQQKPGQTPRLLIYGASTRATGIPARFSGSGSGTEFTLTISSLQSEDFAVYYCQQYDNLLTFGGGTKVEIK
Kd [7]: 0.092 nM

B12: antibody 423 (antibody, V domains shown)
VH: EVQLVESGGGLIQPGGSLRISCAASGFTVRNNHMSWVRQAPGKGLEWVSVFYRGGTTYYADSVKGRFTISRDDSKNTVDLQMNSLRGEDTAVYYCARGLSVAASGYFDCWGQGTLVTVSS
VL: DIQMTQSPSSVSASVGDTVTITCRANQGISSWLAWYQQVPGKAPELLIYATSTLQSGVPSRFSGSGSGTDFTLTISSLQPEDFATYYCQQANSFPFTFGPGTKVDIK
median fluorescence, fold over isotype [2]: 1190 fold over isotype control

B13: anti-SARS-CoV-2 antibody 923 (antibody, V domains shown)
VH: EVQLVESGGGVVRPGGSLRLSCAASGFIFDDYDMTWVRQAPGKGLEWVSGISWNGGNTGYADSVKGRFTISRDNAKNSLYLQMNSLRAEDTALYHCAVIMSPIPRYSGYDWAGGAFDIWGQGTMVTVSS
VL: SSELTQDPAVSVALGQTVRITCQGDSLRSYYASWYQQKPGQVPILVIYDKNNRPSGIPDRFSGSSSGNTASLTITGAQAEDEADYYCNSRDSSGNAVVFGGGTKLTVLG
IC50 (µg/mL), plaque reduction neutralization test [4]: 0.01 µg/mL | IC50 (ng/mL), immunofluorescence neutralization assay [5]: 121 ng/mL

B14: anti-SARS-CoV-2 antibody 1081 (antibody, V domains shown)
VH: QITLKESGPTLVKPTQTLTLTCTFSGFSLSTSRVGVGWIRQPPGKALEWLALIYWNDGKLYSPSLKSRLTITKDTSKNQVVLTLTNMDSVDTATYFCARGQTGTPLYDAFDFWGRGTMVTVSS
VL: SYVLTQPPSVSVAPGKTAGITCGGDNFETKSVSWYQHKPGQAPVLVVYGNANRPSGIPERFSASKSGNTATLTISRVEAGDEADYYCQVWDSRSFHYVVFGGGTKLTVL
Kd [7]: 0.093 nM

B15: anti-SARS-CoV-2 antibody 1098 (antibody, V domains shown)
VH: EVQLLESGGGLVQPGGSLRLSCAASGFTFNSYAMSWVRQAPGKGLEWVSAISGSGGSTYYADSVKGRFSISRDNAKNTLFLQMNSLRAEDTAVYYCARSGGNFDYWGQGTLVTVSL
VL: SYELTQPPSVSVSPGQTARITCSGDVLAKRYVYWYQQKPGQAPVLVIYRDSERPSGIPERFSGSSSGTTVTLTISGVQAVDEADYYCQSADSSGTLYVFGTGTKVTVL
Pseudo-neutralization IC50 [6]: 0.087 µg/mL | Kd [7]: 0.173 nM

B16: anti-SARS-CoV-2 antibody 989 (antibody, V domains shown)
VH: QVQLVQSGAEVKKPGASVKVSCKASGYTFTNYYMHWVRQAPGQGLEWMGIINPSDDNTTYAQKIQGRVIMTRDTSTSTVYMELSSLRSEDTAVYYCARAFAEWELLLDYWGQGTLVTVSS
VL: not shown
Kd [7]: 0.104 nM

B17: anti-SARS-CoV-2 antibody 1015 (antibody, V domains shown)
VH: EVQLVESGGGLVQPGGSLRLSCAASGFTFSSYWMHWVRQAPGKGLVWVSHINSDGSSTSYADSVKGRFTISRDNAKNTLYLQMNSLRAEDTAVYYCARGLRYFDLDVWGQGTTVTVSS
VL: QSVLTQPPSVSEAPRQRVTISCSGSSSNIGNNAVNWYQQLPGKAPKLLIFYDDLLPSGVSDRFSGSKSGTSASLAISGLQSEDEADYYCAAWDDSLNGGVFGGGTKLTVLG
IC50 (ng/mL), immunofluorescence neutralization assay [5]: 260 ng/mL

B18: antibody 377 (antibody, V domains shown)
VH: EVQLVESGGGLVKPGGSLRLSCATSGFTFRTYSMNWVRQAPGKGLEWVSSITTSRNYIYYADSVRGRFTISGDNANNSLYLQMNSLRAEDTAVYYCARVRFVRDTRKPYYFDFWGQGTLVTVSS
VL: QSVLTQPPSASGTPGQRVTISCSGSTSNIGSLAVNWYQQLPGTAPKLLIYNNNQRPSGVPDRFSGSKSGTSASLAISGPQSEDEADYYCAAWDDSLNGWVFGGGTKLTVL
fold over isotype (median fluorescence intensity) [8]: 0.78 fold over isotype

B19: anti-SARS-CoV-2 antibody 555 (antibody, V domains shown)
VH: QVQLVQSGAEVKKPGSSVKVSCKASGGTFSNYAISWVRQAPGQGLEWMGRIIPILGIANYAQKFQGRVTITADKSTSTAYMELSSLRSEDTAVYYCARGYYEARHYYYYYAMDVWGQGTAVTVSS
VL: not shown
IC50 (µg/mL), plaque reduction neutralization test [4]: 0.0083 µg/mL | IC50 (ng/mL), immunofluorescence neutralization assay [5]: 49.2 ng/mL

B20: anti-SARS-CoV-2 antibody 307 (antibody, V domains shown)
VH: QVQLVESGGGVVQPGRSLRLSCAASGFTFSSYGMHWVRQAPGKGLEWVAVIWYDGSNKYYADSVKGRFTISRDNSKNTLYLQMNSLRAEDTAVYYCAKGYTWDYYYYGMDVWGQGTTVTVSS
VL: not shown
kon [3]: 101000 M⁻¹ s⁻¹

B21: anti-SARS-CoV-2 antibody 1091 (antibody, V domains shown)
VH: QVQLVESGGGVVQPGRSLRLSCAASGFTFSNYAMHWVRQAPGKGLEWVAVISYDGSNKYYADSVKGRFTISRDNSKNTLYLQMNSLRAEDTAVYYCARDKLLWFGELLFDMDVWGKGTTVTVSS
VL: DIQMTQSPSSLSASVGDRVTITCRASQGISNYLAWFQQKPGKAPKSLIYDASSLQSGVPSKFSGSGSGTDFTLTISSLQPEDFATYYCQQYNSYPPSFGPGTKVDIK
Kd [7]: 0.054 nM
